Series [1] is described as follows: folding stability dG unfold from trypsin proteolysis; higher = more stable. The method, boiled down: (§1)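 How resistant each design was to proteolysis was captured as K50, inferred by Bayesian fitting of sequencing counts. Unfolding free energy was then derived relative to a sequence-predicted unfolded-state K50 and a shared folded-state K50, per protease or combined. Digestion used trypsin and chymotrypsin at 11 threefold-diluted concentrations plus a no-protease condition, on mini-proteins under 80 residues without cysteine in a PA-tagged cDNA display construct. Designs were kept only when AlphaFold2 dimer inter-PAE was above 15.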

A short description of series [2]: folding stability dG unfold from chymotrypsin proteolysis; higher = more stable. The essentials: as §1
The nature of series [3]: folding stability dG unfold (combined trypsin and chymotrypsin); higher = more stable. The essentials:
as §1

± gives the half width of the 95% confidence interval.

The values below come from the supplement of paper PMC12764529.

As for “SAGPWNIMVYDNGEPLEMIEIKGDEITIPLPPGPVRIAIFNPDDNGFVEEEVTPEDGTIEMKIPKGAKISAG [r5_469_TrROS]”, the “folding stability dG unfold” value was -0.792 ± 0.44 kcal/mol in series [1], 0.207 ± 0.33 kcal/mol in series [2] and -0.113 ± 0.38 kcal/mol in series [3].

As for “SAGPYVMIRIKWPGGEELSIPIPGAKITDVERDGDHITFMFDSPPAAEDIKEEIEDHFPGLKIEIQPIDSAG [r5_453_TrROS]”, the “folding stability dG unfold” value is 0.288 ± 0.16 kcal/mol in series [1], 1.17 ± 0.2 kcal/mol in series [2] and 0.881 ± 0.14 kcal/mol in series [3].

In the case of “SAGPYYVRITVSIYYPGNGAPHQHTIPIKGKTLDDIKDEIRDEIRDHGMKMDPGDEVEIQITDIEVYPGSAG [r5_230_TrROS]”, the “folding stability dG unfold” value in series [1] amounted to 0.905 ± 0.019 kcal/mol; in series [2] it was 1.55 ± 0.06 kcal/mol; in series [3], 1.28 ± 0.075 kcal/mol.

On to “SAGQTIRIDEIYPHPDGFLIKIRYPDGKVHTFPIKPNMPITVDGDTITITFPGGPITIPLENMEIEILPSAG [r5_999_TrROS]”, for which the “folding stability dG unfold” value in series [1] was 3.28 ± 0.069 kcal/mol; in series [2], 3.17 ± 0.039 kcal/mol; in series [3] it was 3.24 ± 0.064 kcal/mol.

As to “SAGRIEIDKIEPGKPVRIKIKIEMPDPNGKKRKMDFTRRVRVDPENGMIYIPITMPNGRPIPIMINVKKSAG [r5_743_TrROS]”, the “folding stability dG unfold” value in series [1] came to 0.313 ± 0.23 kcal/mol; in series [2], 0.552 ± 0.43 kcal/mol; in series [3], 0.619 ± 0.29 kcal/mol.

Take “SAGRIEVYQDPNMLRVIEIPLPNGREIVIYRPPGYYHIEIENPNNNKQIPIMIPMEPGDIKKIIKEFINSAG [r5_820_TrROS]”: the “folding stability dG unfold” value in series [1] amounted to 1.18 ± 0.046 kcal/mol; in series [2] it was 1.38 ± 0.081 kcal/mol; in series [3], 1.33 ± 0.11 kcal/mol.

As to “SAGRIHVMVFPLDPKDGKWEWVWTFTIDFKPGEKLTLDEIADDIPPKGYMVMIWFTPDTITITIWRRKDSAG [r5_269_TrROS]”, the results for the “folding stability dG unfold” value in series [1], in series [2] and in series [3] were 3.87 ± 0.092 kcal/mol, 5.33 ± 0.082 kcal/mol and 4.96 ± 0.12 kcal/mol, respectively.

With “SAGRIYVDPNMVVIEIKYPDKPMPIIIPFKDPEDQEMAKELVKKIMRYLRNEGLPVEVEVEVFPPGQPVSAG [r5_823_TrROS]”, the “folding stability dG unfold” value in series [1] was found to be 1.51 ± 0.026 kcal/mol; in series [2], 2.41 ± 0.026 kcal/mol; in series [3], 2.11 ± 0.11 kcal/mol.

In the case of “SAGRKIPIMFTWPNGDPERMEEIAIEFANYLQPNGLPNVTIKIERKPVKDPENGKRRYVYMVTIEVQPPSAG [r5_49_TrROS]”, the “folding stability dG unfold” value came out at 1.92 ± 0.043 kcal/mol in series [1], 2.89 ± 0.089 kcal/mol in series [2] and 2.44 ± 0.2 kcal/mol in series [3].

For the sequence “SAGRLTTELGDVKAEVFRIPNLNLSLVVYEYPTSVRTLLATEHGDTVTIHPLTETPLPLPPLSDLKSLSAGG [r19_328_TrMRF]”, the “folding stability dG unfold” value was 0.0381 ± 0.068 kcal/mol in series [1], -0.064 ± 0.11 kcal/mol in series [2] and 0.0233 ± 0.1 kcal/mol in series [3].

In the case of “SAGSAAIKALLEKHPKPEVIEVTRLPGSGTLVIKVDDEDHVVPTPPGGFTETLTVDENGNVLSVEPHPASAG [r5_329_JUSTAS]”, the “folding stability dG unfold” value in series [1] was 1.79 ± 0.11 kcal/mol; in series [2], 1.65 ± 0.064 kcal/mol; in series [3] it was 1.74 ± 0.14 kcal/mol.

For the sequence “SAGSAEEIAKKLAEELRKAGYEVKVKVVEVEKVGDGKVVVRVEIEVTYYDKNGKPVKKERFELTIVLPSAGG [r19_418_TrROS_Hall]”, the results for the “folding stability dG unfold” value in series [1], in series [2] and in series [3] were 2.99 ± 0.12 kcal/mol, 4.69 ± 0.27 kcal/mol and 4.25 ± 0.19 kcal/mol, respectively.

Take “SAGSALAAALKLKTYTIKITAPDGTVIELTISYHPSDPEAIKEALAKAGYPPEKLKTENPNLETTEVDASAG [r5_430_JUSTAS]”: the “folding stability dG unfold” value in series [1] came to 1.62 ± 0.071 kcal/mol; in series [2], 1.83 ± 0.14 kcal/mol; in series [3], 1.79 ± 0.16 kcal/mol.

For “SAGSATVTYDPDTNTVTVTLEGPDTTFTISFPNGEKLEVKATVKPLPDGSYKVLLEVYYPDGSKETFELSAG [r14_675_TrMRF]”, the figures for the “folding stability dG unfold” value in series [1], in series [2] and in series [3] were 4.13 ± 0.2 kcal/mol, 5.16 ± 0.3 kcal/mol and above 6 kcal/mol, respectively.

With “SAGSEEEKKAIAEELKEKILKERPELQKKEYTVEVEITPLPDDSIRITVTVTLPSGETETREYVYPNKSAGG [r19_194_JUSTAS]”, the results for the “folding stability dG unfold” value in series [1], in series [2] and in series [3] were 2.71 ± 0.26 kcal/mol, 2.95 ± 0.21 kcal/mol and 3 ± 0.24 kcal/mol, respectively.
